From patent US20250188188A1 come the findings set out here.

The term Kd denotes the equilibrium constant for the complex coming apart. A low value points to higher affinity. The term koff denotes the first-order rate constant of dissociation. The kon is the rate constant with which the complex forms. A higher kon goes with fast association.

In assay [1] the target is active human C1s purified from human serum (CompTech, Tyler, TX, catalog number A104) (human) (UniProt P09871). Kind of assay: SPR, antibody captured via anti-human Fc, C1s in solution.
Assay [2] shares this target. Kind of assay: cell-based or functional assay.

Chain of active human C1s purified from human serum (CompTech, Tyler, TX, catalog number A104) (human) (P09871 16-437, chain 1 of 2): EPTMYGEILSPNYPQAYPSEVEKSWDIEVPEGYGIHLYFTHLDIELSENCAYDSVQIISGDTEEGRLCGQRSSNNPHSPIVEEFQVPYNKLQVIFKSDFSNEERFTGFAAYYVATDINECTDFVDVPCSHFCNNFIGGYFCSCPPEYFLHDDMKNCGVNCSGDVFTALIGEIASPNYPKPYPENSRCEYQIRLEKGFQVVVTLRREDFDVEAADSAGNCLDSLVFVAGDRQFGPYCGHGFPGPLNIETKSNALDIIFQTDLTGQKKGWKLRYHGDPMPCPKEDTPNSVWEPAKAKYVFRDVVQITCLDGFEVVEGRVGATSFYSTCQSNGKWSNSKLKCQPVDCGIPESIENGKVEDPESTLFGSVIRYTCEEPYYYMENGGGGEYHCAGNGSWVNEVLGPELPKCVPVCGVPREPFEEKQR
Chain of active human C1s purified from human serum (CompTech, Tyler, TX, catalog number A104) (human) (P09871 438-688, chain 2 of 2): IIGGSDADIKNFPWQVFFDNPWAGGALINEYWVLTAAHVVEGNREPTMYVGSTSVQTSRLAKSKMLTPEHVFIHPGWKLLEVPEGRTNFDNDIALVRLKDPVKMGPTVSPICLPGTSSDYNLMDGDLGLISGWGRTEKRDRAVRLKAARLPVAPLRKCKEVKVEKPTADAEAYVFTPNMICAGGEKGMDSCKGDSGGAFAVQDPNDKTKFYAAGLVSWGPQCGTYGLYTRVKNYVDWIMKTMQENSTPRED

B1: recombinant TNT020 (antibody, from another filing, V domains shown)
VH: QVQLVQSGAEVKKPGASVKLSCTASGFNIKDDYIHWVKQAPGQGLEWIGRIDPADGHTKYAPKFQVKVTITADTSTSTAYLELSSLRSEDTAVYYCARYGYGREVFDYWGQGTTVTVSS
VL: DIVLTQSPDSLAVSLGERATISCKASQSVDYDGDSYMNWYQQKPGQPPKILIYDASNLESGIPARFSGSGSGTDFTLTISSLEPEDFAIYYCQQSNEDPWTFGGGTKVEIKR
On to B1, for which, in assay [1], the Kd was 3.77 nM, the koff was 0.00134 s⁻¹ and the kon came to 357000 M⁻¹ s⁻¹. Besides, in assay [2], the IC50, inhibition of C3b deposition on sensitized hRBCs in 7.5% human serum (flow cytometry), Donor A amounted to 52.9 nM; the IC50, inhibition of C3b deposition on sensitized hRBCs in 7.5% human serum (flow cytometry), Donor B (1) was 238 nM; the IC50, inhibition of C3b deposition on sensitized hRBCs in 7.5% human serum (flow cytometry), Donor B (2) was 688 nM; the IC50, inhibition of sensitized hRBC lysis in 25% human serum, Donor 1 was 20.9 nM. In assay [2], the IC50, inhibition of sensitized hRBC lysis in 25% human serum, Donor 2 amounted to 30.7 nM and the IC50, inhibition of sensitized hRBC lysis in 25% human serum, Donor 3 came out at 14.6 nM.
